Reference: paper PMC3682496

Target: maltose-binding protein (MBP-DHhN) modified with 6-azicholestanol (not stated | Drosophila)
Assay: cross-linking

stoichiometry N: 1
Substance: Scube2, HA-tagged (from UniProt Q9JJS0 29-997) (natural protein)
